Target: T1, Ligase IV (UniProt P49917 1-911)
T1 construct: DNA Ligase IV, the subunit of XL; also called DNA Ligase IV
T1 sequence (looked up): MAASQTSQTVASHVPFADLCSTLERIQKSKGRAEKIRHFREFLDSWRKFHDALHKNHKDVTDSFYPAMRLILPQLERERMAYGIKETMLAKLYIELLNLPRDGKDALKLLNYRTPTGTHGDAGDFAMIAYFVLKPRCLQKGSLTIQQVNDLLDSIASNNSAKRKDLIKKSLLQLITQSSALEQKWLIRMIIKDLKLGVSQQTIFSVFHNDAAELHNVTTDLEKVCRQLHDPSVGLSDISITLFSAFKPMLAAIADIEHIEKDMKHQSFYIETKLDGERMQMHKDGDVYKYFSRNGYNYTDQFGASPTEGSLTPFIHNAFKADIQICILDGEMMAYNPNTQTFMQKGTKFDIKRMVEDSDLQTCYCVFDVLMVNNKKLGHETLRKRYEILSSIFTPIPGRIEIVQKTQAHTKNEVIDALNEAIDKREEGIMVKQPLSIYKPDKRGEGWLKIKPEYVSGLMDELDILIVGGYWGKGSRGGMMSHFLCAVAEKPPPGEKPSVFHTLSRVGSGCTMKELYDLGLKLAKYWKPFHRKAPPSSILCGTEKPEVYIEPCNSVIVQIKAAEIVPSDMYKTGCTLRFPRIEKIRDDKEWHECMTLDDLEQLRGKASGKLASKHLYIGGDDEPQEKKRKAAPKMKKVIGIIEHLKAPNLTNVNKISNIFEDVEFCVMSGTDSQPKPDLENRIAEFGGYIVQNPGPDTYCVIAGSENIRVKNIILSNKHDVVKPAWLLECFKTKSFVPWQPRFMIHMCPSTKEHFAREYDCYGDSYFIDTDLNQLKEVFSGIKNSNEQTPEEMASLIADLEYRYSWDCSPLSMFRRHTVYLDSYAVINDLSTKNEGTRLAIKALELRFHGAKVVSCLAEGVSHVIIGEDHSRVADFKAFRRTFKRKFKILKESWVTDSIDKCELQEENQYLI
Conditions: both partners purified

B1: XRCC4 (natural protein, UniProt Q13426 1-336, looked up)
chain: MERKISRIHLVSEPSITHFLQVSWEKTLESGFVITLTDGHSAWTGTVSESEISQEADDMAMEKGKYVGELRKALLSGAGPADVYTFNFSKESCYFFFEKNLKDVSFRLGSFNLEKVENPAEVIRELICYCLDTIAENQAKNEHLQKENERLLRDWNDVQGRFEKCVSAKEALETDLYKRFILVLNEKKTKIRSLHNKLLNAAQEREKDIKQEGETAICSEMTADRDPVYDESTDEESENQTDLSGLASAAVSKDDSIISSLDVTDIAPSRKRRQRMQRNLGTEPKMAPQENQLQEKENSRPDSSLPETSKKEHISAENMSLETLRNSSPEDLFDEI
notes: also called XRCC4 homodimer
stoichiometry N: < 1 XRCC4 dimer to Ligase IV molar ratio
